Experimental data from patent publication US20190276502A1 (OXFORD UNIVERSITY INNOVATION, published 2019).

T1: Recombinant His-tagged EapH2 protein (MAP domain of S. aureus EapH2) (Staphylococcus aureus Newman, UniProt A0A0H3K729 24-144)
T1 construct: Made in E. coli and used as the soluble His-tagged ligand; not shown: N-terminal His-tag and 3C protease site from vector pOPIN-F
T1 sequence: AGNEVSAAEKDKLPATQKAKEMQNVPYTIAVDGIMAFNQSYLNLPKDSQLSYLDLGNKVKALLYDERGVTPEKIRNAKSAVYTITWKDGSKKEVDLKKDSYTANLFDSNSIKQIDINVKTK

T2: Recombinant Eap protein (C-terminal MAP domain and adjacent basic region of S. aureus Eap), His tag excised (Staphylococcus aureus Newman, UniProt A6QIG2 481-584)
T2 construct: The tag was removed with HRV 3C protease before coating on the plate; also called immobilized Eap; untagged Eap
T2 sequence: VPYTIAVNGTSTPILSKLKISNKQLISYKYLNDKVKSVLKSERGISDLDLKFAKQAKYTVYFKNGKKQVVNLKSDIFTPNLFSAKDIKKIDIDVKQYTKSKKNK

T3: Recombinant EapH2 protein (MAP domain of S. aureus EapH2), His tag excised (Staphylococcus aureus Newman, UniProt A0A0H3K729 24-144)
T3 construct: The N-terminal His-tag was removed with HRV 3C protease; also called immobilized EapH2; untagged EapH2
T3 sequence: T1 sequence

B1: Recombinant EapH1 protein (MAP domain of S. aureus EapH1), His tag excised (other)
chain: PSHEASADSNNGYKEMTVDGYHTVPYTISVDGITALHRTYFIFPENKNVLYQEIDSKVKNELASQRGVTTEKINNAQTATYTLTLNDGNKKVVNLKKNDDAKNSIDPSTIKQIQIVVK
notes: The N-terminal His-tag was removed with HRV 3C protease; also called immobilized EapH1; untagged EapH1
B2: Recombinant His-tagged Eap protein (C-terminal MAP domain and adjacent basic region of S. aureus Eap) (other)
chain: T2 sequence
notes: not shown: N-terminal His-tag and 3C protease site from vector pOPIN-F

Columns and labels:
[1] = target: T1, Recombinant His-tagged EapH2 protein …; assay: plate interaction assay (EIA): untagged protein immobilised, His-tagged ligand titrated, anti-His alkaline phosphatase detection
[2] = target: T2, Recombinant Eap protein (C-terminal MAP …); assay: plate interaction assay (EIA): untagged protein immobilised, His-tagged ligand titrated, anti-His alkaline phosphatase detection, Kd by non-linear regression
[3] = target: T3, Recombinant EapH2 protein (MAP domain …); assay: as above

Binder	binding result [1]	Kd [2]	Kd [3]
B1	binds	–	–
B2	–	0.08 µM	0.082 µM
